# Results reported in the DeepSol protein solubility set.
# Test: soluble on expression in E. coli; label from the status in PepcDB or PDB records
row,Sequence,soluble on expression in E. coli
1,MGSDKIHHHHHHMLATTIGSIAMRRRVSSLVKVRPAGAATQPALGLRVPLVALVQALAVAEHLNFRHAADALGISQSSVSTRIKQLEQDLGVQLFERRHRGVRLTEAGQHFLEHVATGIEHLDHAVRTAGAIARGERGRLRVGLYSSIFAGFLAELLGQFRGQYPTVDLQIMEGRARDTIRAVREARLDVAFVVGVPKVSDCHSKPLWTEALFVALPERHALAEAEGVTWPALSGASFLARTGGPGPQVHDHIVLRLAGHWCQPRIQRFDVERDTLMSMVAQGYGITLTSEAAAQVPFPGVVFRPVLDETELITFSALWSPHNRCQTLLHLLALAEQKSEGRSLGI,not soluble
2,MGSDKIHHHHHHMLDKSRLSRFKTQIDSQTEIAKFDALAKEWRDPHGKFKHVLSFNQTRLTAIEDQIASHFGRDLTQDIPFDGLSLLDIGCGVGLLCEPLASQGARVTGIDASEHNITLAHRHANSWSIPIEYRHCLAGDLPREQPQYDVILNTEVIEHVEDQAALVASCCDLLKPGGLMVMATLNRTLRSYLIGIIGAEYIMRYLPTGTHDWHHFVTPQELDEMLTPHGLSTKGVEGMAFNPFTRRWKITSNSAVNYLLYASKPIPGVLEA,not soluble
3,MGSDKIHHHHHHMLDPIEFIHNASSISKKSMNRLKLKTNPFSEKPIRGNTKFFVGRTSELSEIADILGAAQYGSVANAAIVGTKGIGKSSILNILYYASKRHNHWVVELEASQITARQFLIQLMYGIIKDNLFSVDGTLSSDYMKHSQKIIEIYKRLSNYSDKTPVHYPREKIERDLKYLLNEVKEENKLCVILIDEADQFAKRSCLGLLQFFHSFLYEDDILTFLAGPPTMVEDLTKISPAIRDRIPKIINMPPLTKEEAYDLIKRRLEDSQITGAKGYQPFSEQSIEKIIEECDGIPRRIIMTCSEAVSLGLKNGVDEIDDEIARNAMKNLGISVGHQILNHLTPAQSKIIKAMAELGGSSTVTELSGILNNSTGTIGTHLSDIYEMGYIYKERDGYNVYYTLSKELKDVLITKEDIS,not soluble
4,MGSDKIHHHHHHMLDSPLSLLAGVGAEIAAGNLIPFLGPDVLTIEAEPPVPVGARTLSLALASKVGVPGRIKNNLWHSAQYIETHKHRVTLDKLMAAFFQPIPEPNALHRWLAGLPKLPMVVDTWYDGAMKAAFEAVGRESWGIVQGCSKARRLDGGVWFRAVSPDGAIVAEDVAESWRTVLYKPHGAAQPTGDVLVSDSDYVEVLTDIDIGTPIPQLVKDRRSNRGFVFLGCRFYDQILRTFARQISKRCGGPRYAVVPEELTRNELKFLEVEGITPITMPLAEAVALMTAAKTA,not soluble
5,MGSDKIHHHHHHMLEFTLNFNDYGLKMGILTKLELDYEIDDIEKFLQFFRTMCDRFEPLIIKLGSDSVRYKEAIKELETLAHNTAWAARRLNLEEVTDFCVFCEEMMAQANRFNGPASDEFTDWMLLMSDQFEKYCRSYENDDSVLAVFNPLIVNVPNIISK,not soluble
6,MGSDKIHHHHHHMLESTEKGEVRKTVGNYRLILMNDPNLQGAFRLNMFTDKIDITRDLGWYRESDSLTDVDLKFLVVYLEKHYGLSNEKRIEDVIKVVANENRYHPVLDRINSITWDGRERIRYALHHFLGAEVSEYTYEVMKLFMIGTIARISCPGIKFEVMLCLVGGQGAGKSTFLRFLAMEDDWFTDDLKKMDDDNVYRKIQGHLIIEFPEMVAILNAKNVEDTKSFMSRQKDTYKTPYDRHPKDHKRQCVFAGSSNSLDFLPMDRSGNRRFLPILCNMEEAETHILDDEKTSREYIDQMWAEAMEIYRSGKCQLRLPKEMEKELCEYQKQFMQEDTKKELILDYLEHYEGSMVCSRQLYSEALGNDGNPAQWEIREINDIMNNCSDWIAFSNPRHFPEPYRRQKGWEKPDNRGQDFQPITKEQMEQLSLPPEWMER,not soluble
7,MGSDKIHHHHHHMLFHKFFDFFEGYEDCYVIIGGNAAAIWLAQDHQDFRATQDYDMVVIFENSQLGFSQKFDDFIEKYGYLCVEIGGDVNKKKVYYRFALDPALAVTGVPQQIELFSKIPLRYELRLPTETMPLHFATGPSLSAIVLNDDYYSLLKQCQQKIGHVSILSVPGLIYFKAKAHLDIRQRLANGDKLRHRANKNKHYKDVCRLCDLIIENQTFDSKVVPRTCQNDLKSFIQLVEAEPEQIFKKRFKSDPDFDLNRDEVVRVLRSLLPTS,not soluble
8,MGSDKIHHHHHHMLGSNMLLTNRIDLRSYHTESCSHTHDFAQLVLPVSGSMELEVGHYSGVVNDDIGVYIAPNEQHCFAGSQKNLFLVIDATTQNSLRDEAFESNILNLTASTKKLIQFTHHYLAHNERDFFTDSLINQLLFHFAASSFSPEPDLVVIRAKQWIDLYFADSVNVNRVAKHCYLSISQLQRRFKQMLGCGIAEYWRMKKLLHAKKLLSQKNCSIEAIAFEVGYENLPAFSRRFSKVFGESPSQWRSKALTAKKMREIDK,not soluble
9,MGSDKIHHHHHHMLHLNLLQVFISVAENSSFTLAGSEMHRTQSAISMKIKRLEEILGVPVFERSGKSIELTKEGAIFLTHSRRILQLVDEAMSAVGAVRKSNVVRLGCVEDYAVRTIPKILVDFWVEHPDVHIEMGTGDSASLLDRLGDDFDVVLAEHPLNSGEGEVVCTDSLVWGASANHSPHLQEPIPVAFRSQGALERQWACSALNAAGRPWRLACLSAGIGTLQTAVDAGLAVGVFKASTLAGALNRLTPADNFPQLPDVEMALHVMNDGFSQPSIMQLVKKLRESLQRPQLAAAHE,not soluble
10,MGSDKIHHHHHHMLIISPKYLNGKIEIEKGERVGLVGKNGSGKTTLILSALCLDQTTSNVTVDDLDFCKEKDYSKISAVLQDVSSQILASTLKDEIELMKRFHSVDDKIARNLMGHYYEVEFNKLSDGYKKRYAIASVLASNPEYILLDEPFANLDDKGVKSVSTIVPKNSLIAEHRIEELRKLVDRVYMIRNNKEINEISKEKLFDIEFLRKEGLRGFSLPKINSELGNEILNVNIDNFTIKIREGEILCLLGRNGSGKTTILRKLSKKIFVIFQEVDLQFFYFTVREIVRSKRVLSLFKLENLADKSPYALSFGQKMRILIASAFSSDSRVIGLDEPSVGMDGEALLSFYEMVKMLKEQKRGLILATHDKDIISLCDTRIVID,not soluble
11,MGSDKIHHHHHHMLISLEDTNYTLVKEYLEKSVNHHILQRYIDNHNFPIIEKSYHKYLTFESLEEDFTYILKDGIVKQSVLSKYGMEFNLRYVTGLEITSVLNTGYSKDMGEPYNVRIESEKASFYKVRRSAFLKDINEDIELQGYVKDFYHNRLQKSMKKMQCMLTNGRIGAISTQIYDLMTLFGEELPNGQILINFVITNEELGKFCGISTASSVSRILKQLKEKNIIRIDKQHIIITNLDKLKDNIVF,not soluble
12,MGSDKIHHHHHHMLKIGKRNPNKPLVIENDQVVSLYFDARGVQSTMLRHDPYALALGYTRTMMGFLLFRPSPCRISMIGLGGGSLAKYCYRHLPDTAITAIEINPDVIALRDHFHVPRDDGRFTVVCADGAQYVAVPGHRPDVLLVDGFNADGLPARLGSSAFYEACRRRLSDDGVLVANLVTDEPDFHRYLRALWEVFAGAVALAPSEGSEHNVTVFAWKGAGGLPSFAAMLDRARALQARHAVNLHATATRIEYGKKFNWSRYGRTA,not soluble
13,MGSDKIHHHHHHMLKNSAKNFVENIEKKLYLSIKEKTDSITFKLEKVLKAFSDSHLNVQHFASLTGYGHGDLGRDIIDKIFANVLDAEKAAVRLQLVSGTHAITSSLFGVLRPGDGLLSVTGRPYESLEEVIGLRGNGKGSLIEFGIAYEEISLKDDGNIDFLALEKALKIPRKLIFIQRSCGYTWRPSLSIEVIKEICYLCHKIQPNCICFVDNCYGEFVETNEPTSVGADLIAGSLIKNLGGTIVPTGGYIAGKADLVDKACCRLTAPGIGSEGGITFDLNRTILQGLFLAPQMVSEALIGAEIISTSFSELGFKVLPTPASKRTDLIQIVRIGDPKILQIICRSFQEKSPIGSFLDPIPAPMPGYENNLVMAGGTFVDGSTSEFSADAPMKPPFDLFIQGGSHRAHVKIALIHALSNLFQAGLIKLPQND,not soluble
14,MGSDKIHHHHHHMLKPSDKWSWYFSDSEGYLMLNLGDDMLFRTNLSRNLLVDCAFIENPFTVDDASDFQLYKEHIACLPLSEPRKAELALYCVAAKRFHKPVQPKSWFFDVQGTGYTPQQGQLISLRNSLNSGIFIALEVGENATLCAYSDLVSFALNGSKTLEFGQVIKVMHDRMSDVNTLLYTPQMAMVS,not soluble
